This is an account of results in the RNAGym collection of RNA variant scans (doi:10.1073/pnas.2313332121).

Fewer inactive variants are shown than the library holds. A value given as a limit tells only on which side of the number the result lay.

Sequences and labels used below:
B1: TPR 5TU (parent)
chain: GGAUCUUCUCGAUCUAACAAAAAAGACAAAUCUGCCACAAAGCUUGAGAGCAUCUUCGGAUGCAGAGGCGGCAGCCUUCGGUGGCGCGAUAGCGCCAACGUUCUCAACUAUGACACGCAAAACGCGUGCUCCGUUGAAUGGAGUUUAUCAUG

In this data set the parent is B1. Put plainly: polymerase ribozyme fitness, log enrichment relative to wild type (log ratio); higher = more active; in vitro selection for triplet polymerase activity. The procedure, abridged:
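In triplicate, a single round of in vitro selection was run on each mutant library, PCR-built and transcribed, covering one subunit of a heterodimeric triplet polymerase ribozyme. Frozen incubation at −7 °C followed annealing with a biotinylated primer, partner subunit and triplets, and extended constructs were then gel-excised, streptavidin-captured and taken through RT-PCR. Fitness is the logarithm of genotype enrichment over wild-type enrichment, from inverse-variance-weighted replicate averages of Illumina-sequenced inputs and outputs. […] only genotypes with ≥10 input reads and ≥1 read per output were kept.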
As to GGAUCUUCUCGAUCUAACAAAAAAGACAAAUCUGCCACAAAGCUUGAGAGCAUCUUCGGAUGCAGAGGCGGCAGCCUUCGGUGACGCGAUAGCGCCAACGGUCUCAACUAUGACACGCAAAUCGCGUGCUCCGUUGAAUGGAGUUCAUCAUG [G84A U101G A122U U146C], the “polymerase ribozyme fitness (log ratio)” value was -0.376. The figure for GGAUCUUCUCGAUCUAACAAAAAAGACAAAUCUGCCACAAAGCUUGAGAGCAUCUUCGGAUGCAGAGGCGGCAGCCUUCGGUGACGCGAUAGCGCCAACGGUCUCAACUAUGACACGCAAAACGCGUGCUCCGUUGAAUGGAGUUUAUCAUG [G84A U101G] is -0.429; for GGAUCUUCUCGAUCUAACAAAAAAGACAAAUCUGCCACAAAGCUUGAGAGCAUCUUCGGAUGCAGAGGCGGCAGCCUUCGGUGUCGCGAUAGCGCCAACGUUCUCAACUAUGACACUCAAAAAGCGUGCUCCGUUGAAUGGAGUUUAUCAUG [G84U G117U C123A] it is -1.62. Next, GGAUCUUCUCGAUCUAACAAAAAAGACAAAUCUGCCACAAAGCUUGAGAGCAUCUUCGGAUGCAGAGGCGGCAGCCUUCGGUGACGCGAUAGCGCCAACGUUCUCAACUAUGACACGCAAAACGCGAGCUCCGUUGAAUGGAGUUUAUCAUG [G84A U127A]: -3.74; GGAUCUUCUCGAUCUAACAAAAAAGACAAAUCUGCCACAAAGCUUGAGAGCAUCUUCGGAUGCAGAGGCGGCAGCCUUCGGUGACGCGAUAGCGCCAACGUUCUCAACUAUGACACGCAAAACGCGUGCUCCGUUGAAUGGAAUUUAUCAUG [G84A G143A]: -1.65.

Take GGAUCUUCUCGAUCUAACAAAAAAGACAAAUCUGCCACAAAGCUUGAGAGCAUCUUCGGAUGCAGAGGCGGCAGCCUUCGGUGACGCGAUAGCGCCAACGUUCUCAACUAUGACAAGCAAAACGCGUGCUCCGUUGAAUGGAGUUUAUCAUG [G84A C116A]: the “polymerase ribozyme fitness (log ratio)” value was determined as 0.83. The figure for GGAUCUUCUCGAUCUAACAAAAAAGACAAAUCUGCCACAAAGCUUGAGAGCAUCUUCGGAUGCAGAGGCGGCAGCCUUCGGUGUCGCGAUAGCGCCAACGUUCUCAACUAUGACACGCAAAACGCGUGCUCCGUUGAAUGGAGUUUAUCGUG [G84U A150G] is -2.7; for GGAUCUUCUCGAUCUAACAAAAAAGACAAAUCUGCCACAAAGCUUGAGAGCAUCUUCGGAUGCAGAGGCGGCAGCCUUCGGUGUCGCGAUAGCGCCAAUGUUCUCAACUAUGACACGCAAAACGCGUGCUCCGUUGAAUGGAGUUUAUCAUG [G84U C99U] it is -1; for GGAUCUUCUCGAUCUAACAAAAAAGACAAAUCUGCCACAAAGCUUGAGAGCAUCUUCGGAUGCAGAGGCGGCAGCCUUCGGUGACGCGAUAGCGCCAACGUUCUCAACUAUGACAGGCAAUACGCGUGCUCCGUUGAAUGGAGUUUAUCAUG [G84A C116G A121U] it is 0.52. The figure for GGAUCUUCUCGAUCUAACAAAAAAGACAAAUCUGCCACAAAGCUUGAGAGCAUCUUCGGAUGCAGAGGCGGCAGCCUUCGGUGCCGCGAUAGCGCCAACGAUCUCAACUAUGACACGCAAAGCGCUUGCUCCGUUGAAUGGAGUUUAUCAUG [G84C U101A A122G G126U] is -3.41. In the case of GGAUCUUCUCGAUCUAACAAAAAAGACAAAUCUGCCACAAAGCUUGAGAGCAUCUUCGGAUGCAGAGGCGGCAGCCUUCGGUGACGCGAUAGCGCCAACGUUCUCAACUAUGACACGCAAAACGCGUGCUCCGUUGAAUGAAGUUUAUCAUG [G84A G141A], the “polymerase ribozyme fitness (log ratio)” value is -0.675. As for GGAUCUUCUCGAUCUAACAAAAAAGACAAAUCUGCCACAAAGCUUGAGAGCAUCUUCGGAUGCAGAGGCGGCAGCCUUCGGUGCCGCGAUAGCGCCAACGUUCUCAACUAUGACACGAAAAACGUGUGCUCCGUUUAAUGGAGUUUAUCAUG [G84C C118A C125U G136U], the “polymerase ribozyme fitness (log ratio)” value was -4.09.

Regarding GGAUCUUCUCGAUCUAACAAAAAAGACAAAUCUGCCACAAAGCUUGAGAGCAUCUUCGGAUGCAGAGGCGGCAGCCUUCGGUGUCGCGUUAGCGCCAUCGUUCUCAACUAUGACACGCAAAACGCUUGCUCCGUUGAAUGGAGUUUAUCAUG [G84U A89U A98U G126U], the “polymerase ribozyme fitness (log ratio)” value is -0.825. The figure for GGAUCUUCUCGAUCUAACAAAAAAGACAAAUCUGCCACAAAGCUUGAGAGCAUCUUCGGAUGCAGAGGCGGCAGCCUUCGGUGACGCGAUAGCGCCAACGUUCUCAACGAUGAGACGCAAAACGCGUGCUCCGUGGAAUGGAGUUUAUCAUG [G84A U109G C114G U135G] is not above -4.2; for GGAUCUUCUCGAUCUAACAAAAAAGACAAAUCUGCCACAAAGCUUGAGAGCAUCUUCGGAUGCAGAGGCGGCAGCCUUCGGUGCCGCGAUAGUGCCAACGUUCUCAACUAUGACACGCAAAACGCGUGCUCCGUUGAAUGGAGUUUAUCAUG [G84C C93U] it is -4.07; for GGAUCUUCUCGAUCUAACAAAAAAGACAAAUCUGCCACAAAGCUUGAGAGCAUCUUCGGAUGCAGAGGCGGCAGCCUUCGGUGACGCGAUAGCGCCAACGUUCUCAACUAUGACACGCAAAACGAGUGCUCAGUUGAAUUGAGUUUAUCAUG [G84A C125A C132A G140U] it is -1.25. Next, GGAUCUUCUCGAUCUAACAAAAAAGACAAAUCUGCCACAAAGCUUGAGAGCAUCUUCGGAUGCAGAGGCGGCAGCCUUCGGUGACGCGAUAGCCCCAACGUUCUCAACUAUGACACGCAAAACGCGUGCUCCGUUGAAUGGAGUUUAUCAUG [G84A G94C]: -1.72; GGAUCUUCUCGAUCUAACAAAAAAGACAAAUCUGCCACAAAGCUUGAGAGCAUCUUCGGAUGCAGAGGCGGCAGCCUUCGGUGUGGCGAUAGCGCGAACGUUCUCAACUAUGACACGCAAAACGCGUGCUCCGUUGAAUGGAGUUUAUCAUG [G84U C85G C96G]: -3.84.

Turning to GGAUCUUCUCGAUCUAACAAAAAAGACAAAUCUGCCACAAAGCUUGAGAGCAUCUUCGGAUGCAGAGGCGGCAGCCUUCGGUGCCGCGAUAGCGCCAACGUACUCAACUAUGACACGCAAAACGCGUGCUCCGUUGAAUGGAGUUUUUCAUG [G84C U102A A147U], the “polymerase ribozyme fitness (log ratio)” value was -3.01.
